Assay results from patent US20230357429A1 (JANUX THERAPEUTICS, published 2023).
Where a chain is given by its changes, count along the chain named. Names may count otherwise. Where two headings read alike, the source gives them in different places. Values belong to the binder of their own block, whether it stands above or below them. Where no end group is shown, it is not given here.

B1: TCE-8 (bispecific antibody)
light: DIQLTQSPSSLSASVGDRVSITCKASQDVSIAVAWYQQKPGKAPKLLIYSASYRYTGVPDRFSGSGSGTDFTLTISSLQPEDFAVYYCQQHYITPLTFGAGTKVEIKRTVAAPSVFIFPPSDEQLKSGTASVVCLLNNFYPREAKVQWKVDNALQSGNSQESVTEQDSKDSTYSLSSTLTLSKADYEKHKVYACEVTHQGLSSPVTKSFNRGEC
heavy: not shown
B2: PC-5 + MTSP1 (bispecific antibody)
light: B1 light
chain: not shown
modifications: Protease-treated product: both masks and the anti-albumin domain are cut off in the cleavable linkers.
notes: not shown: The few linker residues left at the N-terminus of each chain after the MTSP1 cut
B3: TCE-22 (anti-CD3 scFv W112A; anti-TROP2 wt) (bispecific antibody)
light: B1 light
heavy: not shown
notes: scFv on the Fab heavy chain; also called TCE-22 (W112A)
B4: TCE-27 (anti-CD3 scFv Y234A; anti-TROP2 wt) (bispecific antibody)
light: B1 light
heavy: not shown
notes: scFv on the Fab heavy chain
B5: TCE-10 (anti-CD3 scFv R100A; anti-TROP2 wt) (bispecific antibody)
light: B1 light
heavy: not shown
notes: scFv on the Fab heavy chain; also called TCE-10 (R100A)
B6: TCE-21 (anti-CD3 scFv Y111A; anti-TROP2 wt) (bispecific antibody)
light: B1 light
heavy: not shown
notes: scFv on the Fab heavy chain; also called TCE-21 (Y111A)
B7: TCE-31 (anti-CD3 scFv W238A; anti-TROP2 wt) (bispecific antibody)
light: B1 light
heavy: not shown
notes: scFv on the Fab heavy chain; also called TCE-31 (W238A)
B8: Peptide-70 (peptide)
peptide: YLCGPDGDETLACY
modifications: cysteine pairing not given here; also: biotinylated, site not given here
notes: mask peptide for the CD3 scFv

Legend:
Human TROP2 Full length = biological target: T1, Human TROP2 Full length (human, UniProt P09758 31-323); test: cell-based or functional assay
T1 sequence: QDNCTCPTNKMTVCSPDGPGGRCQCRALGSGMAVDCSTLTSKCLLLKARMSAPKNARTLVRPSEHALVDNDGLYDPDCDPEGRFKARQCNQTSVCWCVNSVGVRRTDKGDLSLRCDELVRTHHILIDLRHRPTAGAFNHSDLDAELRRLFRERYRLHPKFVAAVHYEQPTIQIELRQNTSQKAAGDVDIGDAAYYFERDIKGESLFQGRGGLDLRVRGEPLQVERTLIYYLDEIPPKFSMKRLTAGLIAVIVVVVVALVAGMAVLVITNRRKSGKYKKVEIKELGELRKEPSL

Cyno TROP2 Full length = biological target: T2, Cyno TROP2 Full length (cynomolgus monkey, UniProt P09758 31-323 (human entry)); test: cell-based or functional assay
T2 chain: T1 sequence with M32V, S63N, I200V, M262V, T268S

[1] = biological target: T3, Human TROP2 ECD (31-274 AA), biotinylated (human, UniProt P09758 31-274, biotinylated (site not stated)); test: ELISA on immobilized TROP2; binder pre-treated with MTSP1
T3 construct: also called tumor-associated calcium signal transducer 2; Human TROP2-biotin
T3 sequence: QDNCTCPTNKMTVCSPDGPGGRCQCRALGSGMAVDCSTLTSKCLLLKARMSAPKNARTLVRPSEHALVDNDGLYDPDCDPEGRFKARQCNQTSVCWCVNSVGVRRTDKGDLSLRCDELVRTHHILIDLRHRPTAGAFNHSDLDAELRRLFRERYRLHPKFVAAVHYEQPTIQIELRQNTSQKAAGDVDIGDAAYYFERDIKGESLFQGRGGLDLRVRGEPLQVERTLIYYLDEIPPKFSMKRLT

[2] = biological target: T4, CD3 (biotinylated CD3 antigen) (human, UniProt P07766 23-126, limits assumed, biotinylated (site not stated)); test: ELISA, TCE on captured biotin-CD3
T4 construct: also called CD3ε; human CD3

Peptide-65 [3] = biological target: T5, Peptide-65 (cysteine pairing not given here; also: biotinylated, site not given here); test: ELISA, TCE on captured biotin-peptide
T5 construct: mask peptide for the CD3 scFv
T5 peptide: QGCGTIADPEPHCW

Peptide-70 = biological target: B8; test: ELISA, TCE on captured biotin-peptide
Peptide-73 [4] = biological target: T6, Peptide-73 (cysteine pairing not given here; also: biotinylated, site not given here); test: ELISA, TCE on captured biotin-peptide
T6 construct: mask peptide for the CD3 scFv
T6 peptide: VYCGPEFDESVGCA

Peptide-72 [5] = biological target: T7, Peptide-72 (cysteine pairing not given here; also: biotinylated, site not given here); test: ELISA, TCE on captured biotin-peptide
T7 construct: mask peptide for the CD3 scFv
T7 peptide: AYCGPEFDESVGCM

Peptide-67 [6] = biological target: T8, Peptide-67 (cysteine pairing not given here; also: biotinylated, site not given here); test: ELISA, TCE on captured biotin-peptide
T8 construct: mask peptide for the CD3 scFv
T8 peptide: VYCGPEFDESVGCM

Peptide-75 [7] = biological target: T9, Peptide-75 (cysteine pairing not given here; also: biotinylated, site not given here); test: ELISA, TCE on captured biotin-peptide
T9 construct: mask peptide for the CD3 scFv
T9 peptide: GSACLGPEWEVCPY

Peptide-68 [8] = biological target: T10, Peptide-68 (cysteine pairing not given here; also: biotinylated, site not given here); test: ELISA, TCE on captured biotin-peptide
T10 construct: mask peptide for the CD3 scFv
T10 peptide: DWCWYSPDNDGLCD

Peptide-74 [9] = biological target: T11, Peptide-74 (cysteine pairing not given here; also: biotinylated, site not given here); test: ELISA, TCE on captured biotin-peptide
T11 construct: mask peptide for the CD3 scFv
T11 peptide: ASQCLGPEWEVCPY

Peptide-66 [10] = biological target: T12, Peptide-66 (cysteine pairing not given here; also: biotinylated, site not given here); test: ELISA, TCE on captured biotin-peptide
T12 construct: mask peptide for the CD3 scFv
T12 peptide: GSQCLGPEWEVCPY

Peptide-71 [11] = biological target: T13, Peptide-71 (cysteine pairing not given here; also: biotinylated, site not given here); test: ELISA, TCE on captured biotin-peptide
T13 construct: mask peptide for the CD3 scFv
T13 peptide: VDCGPDGDESILCY

Peptide-73 [12] = biological target: T6, Peptide-73; test: ELISA, TCE on captured biotin-peptide
Peptide-65 [13] = biological target: T5, Peptide-65; test: ELISA, TCE on captured biotin-peptide
Peptide-72 [14] = biological target: T7, Peptide-72; test: ELISA, TCE on captured biotin-peptide
Peptide-67 [15] = biological target: T8, Peptide-67; test: ELISA, TCE on captured biotin-peptide
Peptide-75 [16] = biological target: T9, Peptide-75; test: ELISA, TCE on captured biotin-peptide
Peptide-68 [17] = biological target: T10, Peptide-68; test: ELISA, TCE on captured biotin-peptide
Peptide-74 [18] = biological target: T11, Peptide-74; test: ELISA, TCE on captured biotin-peptide
Peptide-66 [19] = biological target: T12, Peptide-66; test: ELISA, TCE on captured biotin-peptide
Peptide-71 [20] = biological target: T13, Peptide-71; test: ELISA, TCE on captured biotin-peptide
Peptide-69 [21] = biological target: T14, Peptide-69 (cysteine pairing not given here; also: biotinylated, site not given here); test: ELISA, TCE on captured biotin-peptide
T14 construct: mask peptide for the CD3 scFv
T14 peptide: SECLVDLQSDPCYW

[22] = biological target: T4, CD3 (biotinylated CD3 antigen); test: ELISA, TCE on captured biotin-CD3; remark: listed apart in the source
Peptide-69 [23] = biological target: T14, Peptide-69; test: ELISA, TCE on captured biotin-peptide
[24] = biological target: T4, CD3 (biotinylated CD3 antigen); test: ELISA: biotinylated CD3 captured on neutravidin plates, TCE titrated, HRP secondary antibody
[25] = biological target: T15, TCE-36 (anti-CD3 scFv H101A; anti-TROP2 F108A); test: competition ELISA, TCE on captured CD3
T15 construct: scFv on the Fab heavy chain

[26] = biological target: T16, TCE-38 (anti-CD3 scFv F240A; anti-TROP2 F108A); test: competition ELISA, TCE on captured CD3
T16 construct: scFv on the Fab heavy chain

[27] = biological target: T17, TCE-14 (anti-CD3 scFv F104A; anti-TROP2 wt); test: competition ELISA, TCE on captured CD3
T17 construct: scFv on the Fab heavy chain; also called TCE-14 (F104A)

[28] = biological target: T18, TCE-20 (anti-CD3 scFv S110A; anti-TROP2 wt); test: competition ELISA, TCE on captured CD3
T18 construct: scFv on the Fab heavy chain; also called TCE-20 (S110A)

[29] = biological target: B5; test: competition ELISA, TCE on captured CD3
[30] = biological target: T19, TCE-13 (anti-CD3 scFv N103A; anti-TROP2 wt); test: competition ELISA, TCE on captured CD3
T19 construct: scFv on the Fab heavy chain; also called TCE-13 (N103A)

[31] = biological target: T20, TCE-1 (anti-CD3 scFv wt; anti-TROP2 Fab wt); test: competition ELISA: peptide titrated and pre-incubated with a constant concentration of TCE-1, binding of TCE-1 to plate-bound biotinylated CD3 detected
T20 construct: anti-CD3 scFv fused to the N-terminus of the anti-TROP2 Fab heavy chain; also called TCE-1 (wt)

[32] = biological target: T21, TCE-26 (anti-CD3 scFv W233A; anti-TROP2 HC wt); test: competition ELISA, TCE on captured CD3
T21 construct: scFv on the Fab heavy chain; also called TCE-26 (W233A)

[33] = biological target: B3; test: competition ELISA, TCE on captured CD3
[34] = biological target: B7; test: competition ELISA, TCE on captured CD3
[35] = biological target: T22, TCE-37 (anti-CD3 scFv F104A; anti-TROP2 F108A); test: competition ELISA, TCE on captured CD3
T22 construct: scFv on the Fab heavy chain

[36] = biological target: T23, TCE-39 (anti-CD3 scFv P41S, A49G, N87S, L150F, T151S, G163R, P175A, K181T, T200V, A202D, L208I, G211N, L217I, …); test: competition ELISA, TCE on captured CD3
T23 construct: scFv on the Fab heavy chain

[37] = biological target: T24, TCE-7 (anti-CD3 scFv wt; anti-TROP2 F108A); test: competition ELISA, TCE on captured CD3
T24 construct: scFv on the Fab heavy chain

Binder: B1
HCT116 Cytotoxicity EC50 (pM) (Human TROP2 Full length): 83 pM
CyTROP2 HEK293 EC50 (pM) (Cyno TROP2 Full length): 0.1 pM

Binder: B2
EC50 [1]: 0.00025 µM

Binder: B3
EC50 [2]: 0.00095 µM
EC50 (Peptide-65 [3]): 0.22 µM
EC50 (Peptide-70): 0.00059 µM
EC50 (Peptide-73 [4]): 0.0122 µM
EC50 (Peptide-72 [5]): 0.0112 µM
EC50 (Peptide-67 [6]): 0.0105 µM
EC50 (Peptide-75 [7]): 0.0382 µM
EC50 (Peptide-68 [8]): 0.794 µM
EC50 (Peptide-74 [9]): 0.0234 µM
EC50 (Peptide-66 [10]): 0.0264 µM
EC50 (Peptide-71 [11]): 0.00487 µM

Binder: B4
EC50 (Peptide-73 [12]): 0.00035 µM

Binder: B5
EC50 (Peptide-65 [13]): 0.473 µM
EC50 (Peptide-72 [14]): 0.00185 µM
EC50 (Peptide-67 [15]): 0.00176 µM
EC50 (Peptide-75 [16]): 0.00076 µM
EC50 (Peptide-68 [17]): 0.00178 µM
EC50 (Peptide-74 [18]): 0.00068 µM
EC50 (Peptide-66 [19]): 0.00058 µM
EC50 (Peptide-71 [20]): 0.00063 µM
EC50 (Peptide-69 [21]): 0.00873 µM
EC50 [22]: 0.00035 µM

Binder: B6
EC50 [2]: 0.592 µM
EC50 (Peptide-65 [3]): 1.08 µM
EC50 (Peptide-70): 0.0119 µM
EC50 (Peptide-72 [5]): 0.0769 µM
EC50 (Peptide-67 [6]): 0.0777 µM
EC50 (Peptide-75 [7]): 0.0956 µM
EC50 (Peptide-68 [8]): 0.381 µM
EC50 (Peptide-74 [9]): 0.0642 µM
EC50 (Peptide-66 [10]): 0.0491 µM
EC50 (Peptide-71 [11]): 0.106 µM
EC50 (Peptide-69 [23]): 0.572 µM

Binder: B7
EC50 (Peptide-73 [12]): 0.00703 µM
EC50 [2]: 0.024 µM
EC50 [24]: 0.00865 µM
EC50 (Peptide-70): 0.008 µM
EC50 (Peptide-72 [5]): 0.00566 µM
EC50 (Peptide-67 [6]): 0.00596 µM
EC50 (Peptide-75 [7]): 0.00708 µM
EC50 (Peptide-68 [8]): 0.00229 µM
EC50 (Peptide-74 [9]): 0.00533 µM
EC50 (Peptide-66 [10]): 0.00634 µM
EC50 (Peptide-71 [11]): 0.112 µM
EC50 (Peptide-69 [23]): 0.00029 µM

Binder: B8
IC50 [25]: 0.08 µM
IC50 [26]: 0.14 µM
IC50 [27]: 0.18 µM
IC50 [28]: 0.37 µM
IC50 [29]: 0.24 µM
IC50 [30]: 2.11 µM
IC50 (read off the curve) [31]: ~0.01 µM
IC50 [32]: 5 µM
IC50 [33]: 0.47 µM
IC50 [34]: 43.5 µM

IC50 [35]: 0.95 µM
IC50 [36]: 2.79 µM
IC50 [37]: 17.5 µM
Binder: YLCGPDADETLACY (cysteine pairing not given here; also: biotinylated, site not given here, mask peptide for the CD3 scFv) [Peptide-76]
